Here are results for two molecules from patent US20240352439, “POLYPEPTIDES AND METHODS FOR MODIFYING NUCLEIC ACIDS” (THE UNIVERSITY OF CHICAGO, published 2024).

What all share (assay): kapp, same conditions
The target in series [1] is TadA8.20 (Escherichia coli, UniProt P68398 SEQ:1-167). The conditions noted are these: tags: MBP removed by TEV; label: 5'-FAM. The source says:
(§1) We compared adenine deamination efficiency of TadA8r in ssDNA with TadA8.20 and TadA8e. Maltose binding protein (MBP) fused TadA8r, TadA8.20, and TadA8e were purified through immobilized metal affinity chromatography. A Tobacco Etch Virus (TEV) protease cutting site was installed between MBP and TadA*. After TEV proteinase treatment, TadA8r, TadA8.20, and TadA8e were purified by immobilized metal affinity chromatography, ion-exchange chromatography, and size-exclusion chromatography. DNA deamination assays were carried out using […] ssDNA oligos under single-turnover conditions. A-to-I conversion was measured to determine the apparent first-order deamination rate constant (kₐₚₚ) (FIG. 2a). Both TadA8.20 and TadA8e preferred TA over GA (kₐₚₚ=0.07 min⁻¹ and 0.08 min⁻¹ for TadA 8.20 on GA and TA probes, respectively; kₐₚₚ=0.01 min⁻¹ and 0.02 min⁻¹ for TadA8e on GA and TA probes, respectively). The kₐₚₚ for TadA8r is much higher—0.55 min⁻¹ on the GA probe and 0.39 min⁻¹, on the TA probe).
(§2) The single turnover DNA deamination reactions containing 4 uM TadA variants in deamination buffer (50 mM Tris, 25 mM KCl, 2.5 mM MgCl₂, 2 mM dithiothreitol, and 10% (v/v) glycerol; pH 7.5) and 5′ Fluorescein labeled ssDNA (IDT) (Supplementary Table 6) to a final concentration of 200 nM. All reactions were incubated at 37° C. At various time points (0, 1, 5, 10, 20, 60, 180 mins), 10 uL reaction mixture were aliquoted and quenched by adding 10 ul of hot water and incubating at 95° C. for 10 min. Reaction mixtures were supplied with 100 ug/ml Proteinase K (Fisher scientific) and incubated at 55° C. for 3 h followed by inactivating at 85° C. for 30 mins and 95° C. for 15 mins. To detected adenosine deamination, reaction mixture was incubated with 10 unit of E. coli EndonucleaseV in 1×NEB4 buffer at 37° C. for 1 h. After cleavage by EndoV, samples were mixed with 2-fold PAGE gel loading buffer (95% formamide, 10 mM EDTA, 0.025% SDS), heated at 95° C. for 5 min, resolved on 15% (v/v) denaturing polyacrylamide gel. Uncleavage substrate and cleavage product were visualized by ChemiDoc XRS+(Bio-rad) under fluorescein channel. DNA band quantification were analyzed using ImageJ Software. Curve fitting was done in GraphPad.

Series [2] concerns the target TadA8e (Escherichia coli). The conditions noted are these: tags: MBP removed by TEV; label: 5'-FAM.
Description: as §1, §2

The target of series [3] is TadA8r (TadA-RA5.2) (Escherichia coli). The conditions noted are these: tags: 6xHis-MBP removed by TEV; label: 5'-FAM.
Description: as §1, §2

B1: GA probe (ssDNA)
DNA: TGGGTTGGTGATCGTTTGGTGG
As to B1, the activity stood at 0.07 min⁻¹ in series [1] and 0.01 min⁻¹ in series [2].

B2: TA probe (ssDNA)
DNA: TGGGTTGGTTATCGTTTGGTGG
Turning to B2, the activity in series [1] was 0.08 min⁻¹; in series [2] it was 0.02 min⁻¹; in series [3], 0.39 min⁻¹.
